# Legend:
# [1] = molecular target: hIL5 (human, UniProt P05113 20-134); assay: ELISA
# [2] = molecular target: hTSLP (human, UniProt Q969D9 29-159); assay: ELISA
EC50 [1],EC50 [2],Binder
16 nM,2.64 nM,HJ-5 (bispecific antibody) chain 1: not shown chain 2: DIQMTQSPSSVSASVGDRVTITCRASQDIANYLSWYQQKPGKSPKLLIYGTSNLEVGVPSRFSGSRSGTDFTLTISSLQPEDFATYYCLQDKEFPRTFGGGTKVEIKGGGGSSGAPRFLTRPKASVVSVGKDATLSSQIVGNPFPQVSWEKDKQPVTAGVRFRLAQDGDLYRLKILDLQLSDSGQYVSRARNAHGEAFACLGLQVDAEA chain 3: EVQLVQSGAEVKKPGSSVKVSCKASGYTFSNYLIEWVRQAPGQGLEWIGVIDPGVGDTNYNENFKGRATLTADKSTSTAYIELSSLRSEDTAVYYCAREDNTGTAFDYWGQGTTVTVSSASTKGPSVFPLAPSSKSTSGGTAALGCLVKDYFPEPVTVSWNSGALTSGVHTFPAVLQSSGLYSLSSVVTVPSSSLGTQTYICNVNHKPSNTKVDKKVEPKSCDKTHTCPPCPAPEAAGGPSVFLFPPKPKDTLMISRTPEVTCVVVDVSHEDPEVKFNWYVDGVEVHNAKTKPREEQYNSTYRVVSVLTVLHQDWLNGKEYKCKVSNKALPAPIEKTISKAKGQPREPQVCTLPPSREEMTKNQVSLSCAVKGFYPSDIAVEWESNGQPENNYKTTPPVLDSDGSFFLVSKLTVDKSRWQQGNVFSCSVMHEALHNHYTQKSLSLSPGK chain 4: SIVMTQTPLSLSVTPGQPASISCKASQSVSSDVTWYLQKPGQSPQLLIYYVSEHYTGVPDRFSGSGYGTDFTLKISRVEAEDVGVYYCQQHHRFPLTFGQGTKLEIKRTVAAPSVFIFPPSDEQLKSGTASVVCLLNNFYPREAKVQWKVDNALQSGNSQESVTEQDSKDSTYSLSSTLTLSKADYEKHKVYACEVTHQGLSSPVTKSFNRGEC
37 nM,2.88 nM,HJ-6 (bispecific antibody) chain 1: not shown chain 2: DIQMTQSPSSVSASVGDRVTITCRASQDIANYLSWYQQKPGKSPKLLIYGTSNLEVGVPSRFSGSRSGTDFTLTISSLQPEDFATYYCLQDKEFPRTFGGGTKVEIKGGGGSSGAPRFLTCPKASVVSVGKDATLSSQIVGNPFPQVSWEKDKQPVTAGVRFRLAQDGDLYRLKILDLQLSDSGQYVSRARNAHGEAFACLGLQVDAEA chain 3: EVQLVQSGAEVKKPGSSVKVSCKASGYTFSNYLIEWVRQAPGQGLEWIGVIDPGVGDTNYNENFKGRATLTADKSTSTAYIELSSLRSEDTAVYYCAREDNTGTAFDYWGQGTTVTVSSASTKGPSVFPLAPSSKSTSGGTAALGCLVKDYFPEPVTVSWNSGALTSGVHTFPAVLQSSGLYSLSSVVTVPSSSLGTQTYICNVNHKPSNTKVDKKVEPKSCDKTHTCPPCPAPEAAGGPSVFLFPPKPKDTLMISRTPEVTCVVVDVSHEDPEVKFNWYVDGVEVHNAKTKPREEQYNSTYRVVSVLTVLHQDWLNGKEYKCKVSNKALPAPIEKTISKAKGQPREPQVCTLPPSREEMTKNQVSLSCAVKGFYPSDIAVEWESNGQPENNYKTTPPVLDSDGSFFLVSKLTVDKSRWQQGNVFSCSVMHEALHNHYTQKSLSLSPGK chain 4: SIVMTQTPLSLSVTPGQPASISCKASQSVSSDVTWYLQKPGQSPQLLIYYVSEHYTGVPDRFSGSGYGTDFTLKISRVEAEDVGVYYCQQHHRFPLTFGQGTKLEIKRTVAAPSVFIFPPSDEQLKSGTASVVCLLNNFYPREAKVQWKVDNALQSGNSQESVTEQDSKDSTYSLSSTLTLSKADYEKHKVYACEVTHQGLSSPVTKSFNRGEC
9.46 nM,3 nM,HJ-11 (bispecific antibody) chain 1: not shown chain 2: DIQMTQSPSSVSASVGDRVTITCRASQDIANYLSWYQQKPGKSPKLLIYGTSNLEVGVPSRFSGSRSGTDFTLTISSLQPEDFATYYCLQDKEFPRTFGGGTKVEIKRTVASSGCPRFLTRPKASVVSVGKDATLSCQIVGNPFPQVSWEKDKQPVTAGVRFRLAQDGDLYRLKILDLQLSDSGQYVCRARNAHGEAFACLGLQVDAEA chain 3: EVQLVQSGAEVKKPGSSVKVSCKASGYTFSNYLIEWVRQAPGQGLEWIGVIDPGVGDTNYNENFKGRATLTADKSTSTAYIELSSLRSEDTAVYYCAREDNTGTAFDYWGQGTTVTVSSASTKGPSVFPLAPSSKSTSGGTAALGCLVKDYFPEPVTVSWNSGALTSGVHTFPAVLQSSGLYSLSSVVTVPSSSLGTQTYICNVNHKPSNTKVDKKVEPKSCDKTHTCPPCPAPEAAGGPSVFLFPPKPKDTLMISRTPEVTCVVVDVSHEDPEVKFNWYVDGVEVHNAKTKPREEQYNSTYRVVSVLTVLHQDWLNGKEYKCKVSNKALPAPIEKTISKAKGQPREPQVCTLPPSREEMTKNQVSLSCAVKGFYPSDIAVEWESNGQPENNYKTTPPVLDSDGSFFLVSKLTVDKSRWQQGNVFSCSVMHEALHNHYTQKSLSLSPGK chain 4: SIVMTQTPLSLSVTPGQPASISCKASQSVSSDVTWYLQKPGQSPQLLIYYVSEHYTGVPDRFSGSGYGTDFTLKISRVEAEDVGVYYCQQHHRFPLTFGQGTKLEIKRTVAAPSVFIFPPSDEQLKSGTASVVCLLNNFYPREAKVQWKVDNALQSGNSQESVTEQDSKDSTYSLSSTLTLSKADYEKHKVYACEVTHQGLSSPVTKSFNRGEC
10.9 nM,3.18 nM,HJ-9 (bispecific antibody) chain 1: not shown chain 2: DIQMTQSPSSVSASVGDRVTITCRASQDIANYLSWYQQKPGKSPKLLIYGTSNLEVGVPSRFSGSRSGTDFTLTISSLQPEDFATYYCLQDKEFPRTFGGGTKVEIKRTVASSGAPRFLTCPKASVVSVGKDATLSSQIVGNPFPQVSWEKDKQPVTAGVRFRLAQDGDLYRLKILDLQLSDSGQYVSRARNAHGEAFACLGLQVDAEA chain 3: EVQLVQSGAEVKKPGSSVKVSCKASGYTFSNYLIEWVRQAPGQGLEWIGVIDPGVGDTNYNENFKGRATLTADKSTSTAYIELSSLRSEDTAVYYCAREDNTGTAFDYWGQGTTVTVSSASTKGPSVFPLAPSSKSTSGGTAALGCLVKDYFPEPVTVSWNSGALTSGVHTFPAVLQSSGLYSLSSVVTVPSSSLGTQTYICNVNHKPSNTKVDKKVEPKSCDKTHTCPPCPAPEAAGGPSVFLFPPKPKDTLMISRTPEVTCVVVDVSHEDPEVKFNWYVDGVEVHNAKTKPREEQYNSTYRVVSVLTVLHQDWLNGKEYKCKVSNKALPAPIEKTISKAKGQPREPQVCTLPPSREEMTKNQVSLSCAVKGFYPSDIAVEWESNGQPENNYKTTPPVLDSDGSFFLVSKLTVDKSRWQQGNVFSCSVMHEALHNHYTQKSLSLSPGK chain 4: SIVMTQTPLSLSVTPGQPASISCKASQSVSSDVTWYLQKPGQSPQLLIYYVSEHYTGVPDRFSGSGYGTDFTLKISRVEAEDVGVYYCQQHHRFPLTFGQGTKLEIKRTVAAPSVFIFPPSDEQLKSGTASVVCLLNNFYPREAKVQWKVDNALQSGNSQESVTEQDSKDSTYSLSSTLTLSKADYEKHKVYACEVTHQGLSSPVTKSFNRGEC

# Further lines, the binder ahead of its results:
Binder,EC50 [1],EC50 [2]
HJ-8 (bispecific antibody) chain 1: not shown chain 2: DIQMTQSPSSVSASVGDRVTITCRASQDIANYLSWYQQKPGKSPKLLIYGTSNLEVGVPSRFSGSRSGTDFTLTISSLQPEDFATYYCLQDKEFPRTFGGGTKVEIKRTVASSGAPRFLTRPKASVVSVGKDATLSSQIVGNPFPQVSWEKDKQPVTAGVRFRLAQDGDLYRLKILDLQLSDSGQYVSRARNAHGEAFACLGLQVDAEA chain 3: EVQLVQSGAEVKKPGSSVKVSCKASGYTFSNYLIEWVRQAPGQGLEWIGVIDPGVGDTNYNENFKGRATLTADKSTSTAYIELSSLRSEDTAVYYCAREDNTGTAFDYWGQGTTVTVSSASTKGPSVFPLAPSSKSTSGGTAALGCLVKDYFPEPVTVSWNSGALTSGVHTFPAVLQSSGLYSLSSVVTVPSSSLGTQTYICNVNHKPSNTKVDKKVEPKSCDKTHTCPPCPAPEAAGGPSVFLFPPKPKDTLMISRTPEVTCVVVDVSHEDPEVKFNWYVDGVEVHNAKTKPREEQYNSTYRVVSVLTVLHQDWLNGKEYKCKVSNKALPAPIEKTISKAKGQPREPQVCTLPPSREEMTKNQVSLSCAVKGFYPSDIAVEWESNGQPENNYKTTPPVLDSDGSFFLVSKLTVDKSRWQQGNVFSCSVMHEALHNHYTQKSLSLSPGK chain 4: SIVMTQTPLSLSVTPGQPASISCKASQSVSSDVTWYLQKPGQSPQLLIYYVSEHYTGVPDRFSGSGYGTDFTLKISRVEAEDVGVYYCQQHHRFPLTFGQGTKLEIKRTVAAPSVFIFPPSDEQLKSGTASVVCLLNNFYPREAKVQWKVDNALQSGNSQESVTEQDSKDSTYSLSSTLTLSKADYEKHKVYACEVTHQGLSSPVTKSFNRGEC,18.7 nM,3.33 nM
HJ-7 (bispecific antibody) chain 1: not shown chain 2: DIQMTQSPSSVSASVGDRVTITCRASQDIANYLSWYQQKPGKSPKLLIYGTSNLEVGVPSRFSGSRSGTDFTLTISSLQPEDFATYYCLQDKEFPRTFGGGTKVEIKGGGGSSGAPRFLTRPKASVVSVGKDATLSCQIVGNPFPQVSWEKDKQPVTAGVRFRLAQDGDLYRLKILDLQLSDSGQYVCRARNAHGEAFACLGLQVDAEA chain 3: EVQLVQSGAEVKKPGSSVKVSCKASGYTFSNYLIEWVRQAPGQGLEWIGVIDPGVGDTNYNENFKGRATLTADKSTSTAYIELSSLRSEDTAVYYCAREDNTGTAFDYWGQGTTVTVSSASTKGPSVFPLAPSSKSTSGGTAALGCLVKDYFPEPVTVSWNSGALTSGVHTFPAVLQSSGLYSLSSVVTVPSSSLGTQTYICNVNHKPSNTKVDKKVEPKSCDKTHTCPPCPAPEAAGGPSVFLFPPKPKDTLMISRTPEVTCVVVDVSHEDPEVKFNWYVDGVEVHNAKTKPREEQYNSTYRVVSVLTVLHQDWLNGKEYKCKVSNKALPAPIEKTISKAKGQPREPQVCTLPPSREEMTKNQVSLSCAVKGFYPSDIAVEWESNGQPENNYKTTPPVLDSDGSFFLVSKLTVDKSRWQQGNVFSCSVMHEALHNHYTQKSLSLSPGK chain 4: SIVMTQTPLSLSVTPGQPASISCKASQSVSSDVTWYLQKPGQSPQLLIYYVSEHYTGVPDRFSGSGYGTDFTLKISRVEAEDVGVYYCQQHHRFPLTFGQGTKLEIKRTVAAPSVFIFPPSDEQLKSGTASVVCLLNNFYPREAKVQWKVDNALQSGNSQESVTEQDSKDSTYSLSSTLTLSKADYEKHKVYACEVTHQGLSSPVTKSFNRGEC,17.7 nM,2.18 nM
HJ-10 (bispecific antibody) chain 1: not shown chain 2: DIQMTQSPSSVSASVGDRVTITCRASQDIANYLSWYQQKPGKSPKLLIYGTSNLEVGVPSRFSGSRSGTDFTLTISSLQPEDFATYYCLQDKEFPRTFGGGTKVEIKRTVASSGAPRFLTRPKASVVSVGKDATLSCQIVGNPFPQVSWEKDKQPVTAGVRFRLAQDGDLYRLKILDLQLSDSGQYVCRARNAHGEAFACLGLQVDAEA chain 3: EVQLVQSGAEVKKPGSSVKVSCKASGYTFSNYLIEWVRQAPGQGLEWIGVIDPGVGDTNYNENFKGRATLTADKSTSTAYIELSSLRSEDTAVYYCAREDNTGTAFDYWGQGTTVTVSSASTKGPSVFPLAPSSKSTSGGTAALGCLVKDYFPEPVTVSWNSGALTSGVHTFPAVLQSSGLYSLSSVVTVPSSSLGTQTYICNVNHKPSNTKVDKKVEPKSCDKTHTCPPCPAPEAAGGPSVFLFPPKPKDTLMISRTPEVTCVVVDVSHEDPEVKFNWYVDGVEVHNAKTKPREEQYNSTYRVVSVLTVLHQDWLNGKEYKCKVSNKALPAPIEKTISKAKGQPREPQVCTLPPSREEMTKNQVSLSCAVKGFYPSDIAVEWESNGQPENNYKTTPPVLDSDGSFFLVSKLTVDKSRWQQGNVFSCSVMHEALHNHYTQKSLSLSPGK chain 4: SIVMTQTPLSLSVTPGQPASISCKASQSVSSDVTWYLQKPGQSPQLLIYYVSEHYTGVPDRFSGSGYGTDFTLKISRVEAEDVGVYYCQQHHRFPLTFGQGTKLEIKRTVAAPSVFIFPPSDEQLKSGTASVVCLLNNFYPREAKVQWKVDNALQSGNSQESVTEQDSKDSTYSLSSTLTLSKADYEKHKVYACEVTHQGLSSPVTKSFNRGEC,20.8 nM,3.17 nM

# From patent US20250376519A1 (JIANGSU HENGRUI PHARMACEUTICALS, published 2025)
